{
  "source": "paper PMC6389977",
  "about": "“Dengue virus nonstructural 3 protein interacts directly with human glyceraldehyde-3-phosphate dehydrogenase (GAPDH) and reduces its glycolytic activity” (Scientific Reports, 2019)",
  "binders": {"B1": {"name": "purified recombinant human GAPDH protein (enzyme)", "chain": "not shown", "notes": "also called glyceraldehyde-3-phosphate dehydrogenase"}, "B2": {"name": "DENV2 NS1 protein (natural protein)", "chain": "DSGCVVSWKNKELKCGSGIFITDNVHTWTEQYKFQPESPSKLASAIQKAHEEGICGIRSVTRLENLMWKQITPELNHILSENEVKLTIMTGDIKGIMQAGKRSLQPQPTELKYSWKTWGKAKMLSTESHNQTFLIDGPETAECPNTNRAWNSLEVEDYGFGVFTTNIWLKLREKQDVFCDSKLMSAAIKDNRAVHADMGYWIESALNDTWKIEKASFIEVKSCHWPKSHTLWSNGVLESEMIIPKNFAGPVSQHNYRPGYHTQTAGPWHLGKLEMDFDFCEGTTVVVTEDCGNRGPSLRTTTASGKLITEWCCRSCTLPPLRYRGEDGCWYGMEIRPLKEKEENLVNSLVTA"}},
  "key": {"[1]": {"target": "T1, recombinant full-length DENV2 NS3 protein (dengue virus 2, New Guinea C (NGC) …, UniProt P14340 1476-2093)", "T1 construct": "also called full-length NS3", "T1 sequence (P14340 1476-2093)": "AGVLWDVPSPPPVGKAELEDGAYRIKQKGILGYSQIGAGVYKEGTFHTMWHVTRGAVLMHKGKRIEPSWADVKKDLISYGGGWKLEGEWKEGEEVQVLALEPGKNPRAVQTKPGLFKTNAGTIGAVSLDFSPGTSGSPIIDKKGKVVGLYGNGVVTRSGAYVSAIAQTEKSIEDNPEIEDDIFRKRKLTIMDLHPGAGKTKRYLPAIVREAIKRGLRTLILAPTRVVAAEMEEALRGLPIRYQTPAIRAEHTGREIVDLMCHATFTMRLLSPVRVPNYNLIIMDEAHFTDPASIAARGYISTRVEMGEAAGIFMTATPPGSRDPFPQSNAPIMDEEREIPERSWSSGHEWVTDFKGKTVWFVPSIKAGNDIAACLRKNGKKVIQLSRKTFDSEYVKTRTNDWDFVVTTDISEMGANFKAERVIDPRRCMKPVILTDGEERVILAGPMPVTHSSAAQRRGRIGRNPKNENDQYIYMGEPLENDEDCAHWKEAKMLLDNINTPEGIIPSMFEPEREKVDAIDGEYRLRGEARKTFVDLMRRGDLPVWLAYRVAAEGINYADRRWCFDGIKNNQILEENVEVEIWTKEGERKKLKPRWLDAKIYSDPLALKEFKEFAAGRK", "experiment": "SPR", "conditions": "both partners purified"}, "[2]": {"target": "B1", "experiment": "SPR; unpublished data; no conditions told; the estimate is given together with the ELISA result of ref. 39"}},
  "data": [
    {"binder": "B1", "values": [
      {"measurement": "Kd", "setting": "[1]", "result": 310, "unit": "nM"}
    ]},
    {"binder": "B2", "values": [
      {"measurement": "Kd", "setting": "[2]", "result": "2000 to 3000", "unit": "nM"}
    ]}
  ]
}
